Measured values as given in US20160200799A1.

Tests used:
Test in all cases: cell-based or functional assay
[1] = target: Influenza virus A/Brisbane/59/2007 (H1N1) (Influenza A virus A/Brisbane/59/2007 (H1N1))
[2] = target: Influenza virus A/Indonesia/5/2005/PR8-IBCDC-RG2 (H5N1) (Influenza A virus A/Indonesia/5/2005/PR8-IBCDC-RG2 (H5N1))
[3] = target: Influenza virus A/Okuda/1957 (H2N2) (Influenza A virus A/Okuda/1957 (H2N2))
[4] = target: Influenza virus A/Panama/2007/1999 (H3N2) (Influenza A virus A/Panama/2007/1999 (H3N2))
[5] = target: Influenza virus A/Suita/1/2009pdm (H1N1 2009 pandemic) (Influenza A virus A/Suita/1/2009pdm (H1N1pdm))

B1: F081-007 completely humanized IgG antibody (antibody, V domains shown)
VH: QVQLQQSGAEVKKPGSSVKVSCKASGGIFRKNAISWVRQAPGQGLEWMGGISAIFGTANYAQKFQGRVTITADESSNTVYMDLSRLRSEDTAIYYCASHPTYHFDKSGYRFDSWGQGTLVTVSS
VL: QSVLTQPPSVSAAPGQKVTISCSGSSSNIGNNYVSWYQQLPGTAPKLLIYDNNKRPSGIPDRFSGSKSGTSATLGITGLQTGDEADYYCGTWDSSLSAGVFGGGTKLTVLG
Infection inhibition rate (%) [1]: 36.3%
Infection inhibition rate (%) at 0.002 µg/mL [1]: 0%
Infection inhibition rate (%) at 0.006 µg/mL [1]: 9.9%
Infection inhibition rate (%) at 0.024 µg/mL [1]: 27.9%
Infection inhibition rate (%) at 0.391 µg/mL [1]: 59.2%
Infection inhibition rate (%) at 1.6 µg/mL [1]: 82.4%
Infection inhibition rate (%) at 6.3 µg/mL [1]: 90.1%
Infection inhibition rate (%) at 25.0 µg/mL [1]: 100%
Infection inhibition rate (%) at 100.0 µg/mL [1]: 100%
Infection inhibition rate (%) at 200.0 µg/mL [1]: 100%
IC50 of neutralization [2]: 0.36 µg/mL
Infection inhibition rate (%) [2]: 10.2%
Infection inhibition rate (%) at 0.024 µg/mL [2]: 7%
Infection inhibition rate (%) at 0.391 µg/mL [2]: 55.3%
Infection inhibition rate (%) at 1.6 µg/mL [2]: 85.1%
Infection inhibition rate (%) at 6.3 µg/mL [2]: 100%
Infection inhibition rate (%) at 25.0 µg/mL [2]: 100%
Infection inhibition rate (%) at 100.0 µg/mL [2]: 100%
Infection inhibition rate (%) at 200.0 µg/mL [2]: 100%
Infection inhibition rate (%) at 0.024 µg/mL [3]: 0%
Infection inhibition rate (%) at 0.391 µg/mL [3]: 37.2%
Infection inhibition rate (%) at 0.98 µg/mL [3]: 16.5%
Infection inhibition rate (%) at 1.6 µg/mL [3]: 79%
Infection inhibition rate (%) at 6.3 µg/mL [3]: 92.6%
Infection inhibition rate (%) at 25.0 µg/mL [3]: 98.2%
Infection inhibition rate (%) at 100.0 µg/mL [3]: 98.9%
Infection inhibition rate (%) at 200.0 µg/mL [3]: 98.9%
Infection inhibition rate (%) [4]: 0%
Infection inhibition rate (%) at 0.391 µg/mL [4]: 0%
Infection inhibition rate (%) at 1.6 µg/mL [4]: 0%
Infection inhibition rate (%) at 6.3 µg/mL [4]: 0%
Infection inhibition rate (%) at 25.0 µg/mL [4]: 0%
Infection inhibition rate (%) at 100.0 µg/mL [4]: 0%
Infection inhibition rate (%) at 200.0 µg/mL [4]: 0%
Infection inhibition rate (%) [5]: 49.8%
Infection inhibition rate (%) at 0.002 µg/mL [5]: 29.3%
Infection inhibition rate (%) at 0.006 µg/mL [5]: 32%
Infection inhibition rate (%) at 0.024 µg/mL [5]: 45.3%
Infection inhibition rate (%) at 0.391 µg/mL [5]: 83.1%
Infection inhibition rate (%) at 1.6 µg/mL [5]: 96.8%
Infection inhibition rate (%) at 6.3 µg/mL [5]: 100%
Infection inhibition rate (%) at 25.0 µg/mL [5]: 100%
Infection inhibition rate (%) at 100.0 µg/mL [5]: 100%
Infection inhibition rate (%) at 200.0 µg/mL [5]: 100%
